From PMC8589836, “A viral genome packaging ring-ATPase is a flexibly coordinated pentamer” (Nature Communications, 2021)
Numbering of substitutions follows the chain as printed. Names may count otherwise.

B1: SNAP-gp17 (SNAP-tagged full-length wild-type phage T4 large terminase gp17, labelled with SNAP-Surface 549) (enzyme, bacteriophage T4, UniProt P17312 1-610, looked up)
chain: MEQPINVLNDFHPLNEAGKILIKHPSLAERKDEDGIHWIKSQWDGKWYPEKFSDYLRLHKIVKIPNNSDKPELFQTYKDKNNKRSRYMGLPNLKRANIKTQWTREMVEEWKKCRDDIVYFAETYCAITHIDYGVIKVQLRDYQRDMLKIMSSKRMTVCNLSRQLGKTTVVAIFLAHFVCFNKDKAVGILAHKGSMSAEVLDRTKQAIELLPDFLQPGIVEWNKGSIELDNGSSIGAYASSPDAVRGNSFAMIYIDECAFIPNFHDSWLAIQPVISSGRRSKIIITTTPNGLNHFYDIWTAAVEGKSGFEPYTAIWNSVKERLYNDEDIFDDGWQWSIQTINGSSLAQFRQEHTAAFEGTSGTLISGMKLAVMDFIEVTPDDHGFHQFKKPEPDRKYIATLDCSEGRGQDYHALHIIDVTDDVWEQVGVLHSNTISHLILPDIVMRYLVEYNECPVYIELNSTGVSVAKSLYMDLEYEGVICDSYTDLGMKQTKRTKAVGCSTLKDLIEKDKLIIHHRATIQEFRTFSEKGVSWAAEEGYHDDLVMSLVIFGWLSTQSKFIDYADKDDMRLASEVFSKELQDMSDDYAPVIFVDSVHSAEYVPVSHGMSMV
modifications: SNAP-Surface 549 fluorophore (called Cy3 in the paper) on the SNAP-tag
notes: Large terminase gp17 of bacteriophage T4, full-length wild type, amplified from pET15-gp17 and inserted into pET-SNAP; Order on the chain as printed: SNAP-tag, hexa-histidine tag, full-length gp17; Added as a monomer; it assembles into the motor on the T4 head; also called WT gp17; Cy3-labeled gp17; not shown: SNAP-tag, N-terminal, kept
B2: SNAP-Q163A-gp17 (ATPase-defective Walker A P-loop mutant of SNAP-tagged gp17, labelled with SNAP-Surface 549) (enzyme, bacteriophage T4, UniProt P17312 1-610, looked up)
chain: B1 chain with Q163A
modifications: SNAP-Surface 549 fluorophore (called Cy3 in the paper) on the SNAP-tag
notes: Large terminase gp17 of bacteriophage T4, full length, with Q163A; made by overlap PCR with the SNAP-gp17 construct as template; also called Q163A mutant; not shown: SNAP-tag, N-terminal, kept

Legend:
[1] = biological target: the molecule itself; experiment: single-molecule TIRF fluorescence (Cy3 photobleaching step counting); motors assembled from T4 heads, Cy3-labelled SNAP-gp17 monomer (2-5 uM), 1 mM ATP-gammaS and 120-bp DNA; heads held on a PEG surface by anti-T4 polyclonal antibody; only spots with packaged Cy5-DNA counted; binomial fit of step counts (486 trajectories); room temperature
[2] = biological target: the molecule itself; experiment: not stated; assembly of the Q163A mutant into a pentamer; shown only in Supplementary Fig. 3b-g
[3] = biological target: T1, WT-gp17 (His-tagged, unlabeled wild-type phage T4 gp17) (bacteriophage T4, UniProt P17312 1-610); experiment: single-molecule TIRF fluorescence (Cy3 photobleaching step counting); only the inactive SNAP-Q163A-gp17 labelled with Cy3, mixed with unlabeled WT gp17 and assembled on T4 heads; heads held on a PEG surface by anti-T4 antibody; Cy5-DNA and ATP flowed in, DNase I after ~10 min; Cy3 and Cy5 spots colocalised (2405 trajectories); room temperature; conditions: both partners purified
T1 construct: Large terminase gp17 of bacteriophage T4; also called unlabeled WT gp17; source: E. coli BL21 (DE3) pLysS or codon-plus BL21 (DE3) RIPL, purified (HisTrap, Superdex-200 SEC)

Row | Binder | stoichiometry N [1] | stoichiometry N [2] | binding result [3]
1 | B1 | 5 |  | 
2 | B2 |  | 5 | binds
